Where two headings read alike, the source gives them in different places.
T1: CCR4 (human, UniProt P51679 1-360)
T1 construct: whole, on cells
T1 sequence (looked up): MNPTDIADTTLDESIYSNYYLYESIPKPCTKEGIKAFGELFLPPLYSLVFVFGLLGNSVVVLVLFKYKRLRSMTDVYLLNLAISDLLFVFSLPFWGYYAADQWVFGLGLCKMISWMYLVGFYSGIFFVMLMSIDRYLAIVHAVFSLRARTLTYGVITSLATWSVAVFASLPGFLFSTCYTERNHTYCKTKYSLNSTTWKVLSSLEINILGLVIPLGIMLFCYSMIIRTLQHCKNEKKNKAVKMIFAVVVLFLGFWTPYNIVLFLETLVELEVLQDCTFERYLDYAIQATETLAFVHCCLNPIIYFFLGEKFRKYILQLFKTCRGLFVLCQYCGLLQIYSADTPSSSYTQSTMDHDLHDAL

T2: human CXCR3 (human, UniProt P49682 1-368)
T2 construct: whole, on cells
T2 sequence (looked up): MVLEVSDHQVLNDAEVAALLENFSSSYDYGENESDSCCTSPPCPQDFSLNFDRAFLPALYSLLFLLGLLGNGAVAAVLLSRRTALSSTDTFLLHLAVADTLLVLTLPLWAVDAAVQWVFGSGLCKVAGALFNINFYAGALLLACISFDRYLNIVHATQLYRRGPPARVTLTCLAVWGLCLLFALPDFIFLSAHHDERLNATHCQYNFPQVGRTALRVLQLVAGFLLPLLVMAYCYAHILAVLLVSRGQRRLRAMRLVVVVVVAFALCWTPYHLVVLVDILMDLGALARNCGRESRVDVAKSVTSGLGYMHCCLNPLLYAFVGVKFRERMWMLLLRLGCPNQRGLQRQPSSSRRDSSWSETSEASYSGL


Assays:
human CXCR4 [1] = target: T3, human CXCR4 (human, UniProt P61073 1-352); test: cell-based or functional assay
cynomolgus monkey CXCR4 [2] = target: T4, cynomolgus monkey CXCR4 (cynomolgus monkey, UniProt Q28474 1-352); test: FMAT, hybridoma supernatant on HEK293T cells transiently overexpressing full-length cynomolgus CXCR4
T4 construct: whole, on cells; On transiently transfected HEK293T cells or endogenous on the cynomolgus T-cell line HSC-F; also called Cynomolgus CXCR4
Experimental: (§1) Supernatants collected from harvested cells were tested to assess the ability of the secreted antibodies to bind to HEK293T cells transiently overexpressing either full-length human, murine or cynomolgus monkey CXCR4. […] Cells diluted in PBS containing 2% FBS were seeded at a density of 3000 expressing and 15000 mock transfected cells per well in 384 well plates (Corning Costar, catalog #3712). Immediately after plating, 15 or 20 μl/well of hybridoma supernatants and 10 μl/well of secondary antibody (Goat anti-human IgG Fc Cy5, final concentration 750 ng/ml) were added and plates incubated for 3 hours at room temperature prior to reading the fluorescence on the FMAT 8200 instrument (Applied Biosystems). The product of number of positive events and fluorescence intensity was used as a measure of binding strength.

human CXCR4 [3] = target: T3, human CXCR4; test: FACS binding under antigen limiting conditions on Jurkat cells, Kinexa software fit
Experimental: (§2) FACS binding under antigen limiting conditions was utilized to estimate the affinities of antibodies to the CXCR4 receptor. Jurkat cells were washed in RPMI1640 medium and plated at 50,000 cells per well in duplicate for incubation with 4-fold dilution series of antibody in duplicate, ranging between 150,000 and 0.143 pM. Incubation was carried out at 4° C. overnight, followed by wash step (3 times in PBS) and staining with Goat anti-human Fc−Cy5 secondary antibody+5 μg/mL 7-Amino-Actinomycin (7AAD) for 40 minutes at 4° C. Samples were analyzed on a FACSCaliber following another round of 3 washes in PBS. […] The negative geo mean was entered into Kinexa analysis software as an estimate of antibody “depletion” under limited antigen conditions, and the equilibrium dissociation constant (KD) was estimated from the curve fit.

human CXCR4 [4] = target: T3, human CXCR4; test: FMAT, hybridoma supernatant on HEK293T cells transiently overexpressing full-length human CXCR4
Experimental: as §1

human CXCR4 [5] = target: T3, human CXCR4; test: FACS, hybridoma supernatant pre-incubated with human CXCR4 transfected HEK293T cells, competitor Alexa-647 SDF-1
human CXCR4 [6] = target: T3, human CXCR4; test: cell-based or functional assay; remark: listed apart in the source
human CXCR4 [7] = target: T3, human CXCR4; test: cell-based or functional assay; remark: listed apart in the source
human CXCR4 [8] = target: T3, human CXCR4; test: FACS binding titration on Namalwa cells (human CXCR4), Kinexa model fit
cynomolgus monkey CXCR4 [9] = target: T4, cynomolgus monkey CXCR4; test: FACS binding titration on HSC-F cells (cyno CXCR4), Kinexa model fit
human CXCR4 [10] = target: T3, human CXCR4; test: cell-based or functional assay; remark: listed apart in the source
CCR4 = target: T1, CCR4; test: FACS on CCR4 transfected CHO cells, parental cells as control
Experimental: (§3) CXCR4 is a GPCR, with few close homologues in the family of human GPCRs. Among these are CXCR3 and CCR4. […] The samples were analyzed on a FACS Caliber cytometer.

mouse CXCR4 = target: T5, mouse CXCR4 (mouse, UniProt P70658 1-359); test: FMAT, hybridoma supernatant on HEK293T cells transiently overexpressing full-length mouse CXCR4
T5 construct: Full-length murine CXCR4 on transiently transfected HEK293T cells; also native on mouse lymphocytes and the EL4 line; also called murine CXCR4
Experimental: as §1

human CXCR3 = target: T2, human CXCR3; test: FACS on human CXCR3 transfected HEK293 cells, parental cells as control
Experimental: as §3

human CXCR4 [11] = target: T3, human CXCR4; test: FACS binding under antigen limiting conditions on Jurkat cells, Kinexa software fit; experiment 1
Experimental: as §2

human CXCR4 [12] = target: T3, human CXCR4; test: FACS competition on formalin-fixed Namalwa cells: 10 nM biotinylated SDF-1 bound first, then displaced by 6C7; streptavidin-PE readout
cynomolgus monkey CXCR4 [13] = target: T4, cynomolgus monkey CXCR4; test: Kinexa-based on-cell affinity (FACS) on cynomolgus T-cell line HSC-F
human CXCR4 [14] = target: T3, human CXCR4; test: FACS binding under antigen limiting conditions on Jurkat cells, Kinexa software fit; experiment 2
Experimental: as §2

T4 sequence (Q28474 whole entry): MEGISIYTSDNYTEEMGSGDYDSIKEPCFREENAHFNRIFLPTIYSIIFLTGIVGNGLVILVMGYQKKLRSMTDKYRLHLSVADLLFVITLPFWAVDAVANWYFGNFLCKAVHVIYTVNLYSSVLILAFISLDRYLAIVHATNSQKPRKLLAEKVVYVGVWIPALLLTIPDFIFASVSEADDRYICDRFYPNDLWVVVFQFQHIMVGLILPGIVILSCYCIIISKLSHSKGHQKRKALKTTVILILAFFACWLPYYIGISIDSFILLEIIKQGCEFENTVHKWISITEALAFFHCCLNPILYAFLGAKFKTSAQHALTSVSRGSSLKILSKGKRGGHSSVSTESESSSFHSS
T3 sequence (P61073 whole entry): as the sequence (Q28474 whole entry) above, with I24M, H35N, R38K, K146R, S176N counted along it
T5 sequence (P70658 whole entry): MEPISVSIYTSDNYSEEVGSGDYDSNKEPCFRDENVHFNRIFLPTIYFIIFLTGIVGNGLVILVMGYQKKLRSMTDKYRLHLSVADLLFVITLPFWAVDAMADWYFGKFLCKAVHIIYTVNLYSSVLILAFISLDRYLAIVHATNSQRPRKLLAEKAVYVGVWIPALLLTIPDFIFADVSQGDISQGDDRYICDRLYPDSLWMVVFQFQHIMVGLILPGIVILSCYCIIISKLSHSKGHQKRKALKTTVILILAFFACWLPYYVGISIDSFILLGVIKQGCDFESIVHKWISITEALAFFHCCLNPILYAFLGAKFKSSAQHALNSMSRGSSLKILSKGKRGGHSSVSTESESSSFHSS

Row | Binder | Jurkat chemotaxis inhibition IC50 pM (human CXCR4 [1]) [pM] | Jurkat chemotaxis inhibition IC50 (human CXCR4 [1]) [µg/mL] | Count (cynomolgus monkey CXCR4 [2]) | FL1 (cynomolgus monkey CXCR4 [2]) | FL1 x count (cynomolgus monkey CXCR4 [2]) | Kd (human CXCR4 [3]) [pM] | Count (human CXCR4 [4]) | FL1 (human CXCR4 [4]) | FL1 x count (human CXCR4 [4]) | % Inhibition of SDF-1 binding (human CXCR4 [5]) [%] | % Inhibition 1 hr (Jurkat chemotaxis) (human CXCR4 [6]) [%] | % Inhibition 24 hr (Jurkat chemotaxis) (human CXCR4 [6]) [%] | Jurkat chemotaxis inhibition IC50 (human CXCR4 [10]) [pM] | binding result (CCR4) | Count (mouse CXCR4) | FL1 (mouse CXCR4) | FL1 x count (mouse CXCR4) | binding result (human CXCR3) | further results
1 | 5E1 (antibody, V domains shown, Fully human monoclonal antibody from XenoMouse hybridoma) VH: EVQLLESGGGLVQPGGSLRLSCAASGFTFSSFAMNWVRQAPGKGLEWVSAISGSGGNIYYADSVRGRFTISRDNSKNTLYLQMNSLRAEDTAVYYCAKVDRNLGYYHGMDVWGQGTTVTVSS VL: not shown | 14200 | 2.12 | 130 | 12900 | 1.68e+06 | 45 | 213 | 7750 | 1.65e+06 | 1 | 70 | -20 | – | – | – | – | – | – | –
2 | 6C7 IgG1TM (antibody, V domains shown, 6C7 variable domains on a variant IgG1 Fc (IgG1 TM); also called 6C7-TM; Anti-CXCR4 IgG1 TM) VH: QVQLVESGGGVVQPGRSLRLSCAASGFTFSNYVMHWVRQAPGKGLEWVAVIWYDGSNKYYADSVKGRFTISRDNSKNTLSLQMNSLRAEDTAVYYCERGEGYYGSGSRYRGYYYGMDVWGQGTTVTVSS VL: DIQMTQSPSSLSASVGDRVTITCRASQGIRTDLGWYQQKPGKAPKRLIYAASSLQSGVPSRFSGSGSGTEFTLTISSLQPEDFATYYCLQHNSYPRTFGQGTKVEIKR | – | – | – | – | – | – | – | – | – | – | – | – | 193 | – | – | – | – | – | Inhibition of pMAPK Signaling IC50 (nM), Jurkat, ELISA (human CXCR4 [7]): 3.1 nM; Kd (human CXCR4 [8]): 768 pM; Kd (cynomolgus monkey CXCR4 [9]): 221 pM
3 | 4C1 (antibody, V domains shown, Fully human monoclonal antibody from XenoMouse hybridoma (strains XMG2 IgG2 or XMG4 IgG4, kappa/lambda); Tested as hybridoma supernatant or purified antibody; also called mAb 4C1; Mab4C1) VH: QVQLVESGGGVVQPGRSLRLSCAASGFTFSSYGMHWVRQAPGKGLEWVAVISYDGSNKYYADSVKGRFTISRDNSKNTLYLQMNSLRAEDTAVYYCTRGGLAARRNYYYSYGMDVWGQGTTVTVSS VL: DIQMTQSPSSLSASVGDRVTITCRASQDIRNDLGWYQQKPGKAPKRLIYAASSLQSGVPSRFSGSGSGTQFTLTISSLQPEDFATYYCLQHNSYPLTFGGGTKVQIK | 1220 | 0.182 | 46 | 6360 | 293000 | 2200 | 183 | 8330 | 1.52e+06 | 35 | 81.3 | -27 | – | no binding (tested: 10 and 100 ug/ml) | 5 | 1490 | 7440 | no binding (tested: 10 and 100 ug/ml) | –
4 | 7C8 (antibody, V domains shown, Fully human monoclonal antibody from XenoMouse hybridoma) VH: QVQLVESGGGVVQPGRSLRLSCAASGFTFSSYGMHWVRQAPGKGLEWVAVIWYDGTYKYYADSVRGRFTISRDNSKNTLYLQMNSLRAEDTAVYYCARGPLLRYFDWLSDYWGQGTLVTVSS VL: DIQMTQSPSSLSASVGDRVTITCRASQGIRNDLGWYQQKPGKAPKRLIYAATSLQSGVPSRFSGSGSGTEFTLTISSLQPEDFATYYCLQHNNYPRTFGGGTKVEIK | 1570 | 0.236 | 137 | 4680 | 642000 | 363 | 184 | 7940 | 1.46e+06 | 75 | 48.3 | -34 | – | no binding (tested: 10 and 100 ug/ml) | 9 | 2400 | 21600 | no binding (tested: 10 and 100 ug/ml) | –
5 | 6C7 (antibody, V domains shown, Fully human monoclonal antibody from XenoMouse hybridoma; also called antibody 6C7; mAb 6C7) VH: QVQLVESGGGVVQPGRSLRLSCAASGFTFSNYVMHWVRQAPGKGLEWVAVIWYDGSNKYYADSVKGRFTISRDNSKNTLSLQMNSLRAEDTAVYYCERGEGYYGSGSRYRGYYYGMDVWGQGTTVTVSS VL: DIQMTQSPSSLSASVGDRVTITCRASQGIRTDLGWYQQKPGKAPKRLIYAASSLQSGVPSRFSGSGSGTEFTLTISSLQPEDFATYYCLQHNSYPRTFGQGTKVEIK | 74.7 | 0.0112 | 125 | 3470 | 434000 | – | 199 | 7990 | 1.59e+06 | 88 | 99.6 | 95 | 68 | no binding (tested: 10 and 100 ug/ml) | – | – | – | no binding (tested: 10 and 100 ug/ml) | Kd (human CXCR4 [11]): 242 pM; IC50 (human CXCR4 [12]): 123 pM; IC50 (read off the curve) (human CXCR4 [12]): ~100 pM; Kd (cynomolgus monkey CXCR4 [13]): 221 pM; Kd (human CXCR4 [14]): 768 pM
6 | 2A4 (antibody, V domains shown, Fully human monoclonal antibody from XenoMouse hybridoma; also called mAb 2A4; Mab2A4) VH: QVQLVESGGGVVQPGRSLRLSCAASGFTFSSYGMHWVRQAPGKGLEWVAVISYDGSNKYYADSVKGRFTISRDNSKNTLYLQMNSLRAEDTAVYYCTRGGLAARRNYYYSYGTDVWGQGTTVTVSS VL: DIQMTQSPSSLSASVGDRVTITCRASQDIRNDLGWYQQKPGKAPTRLIYAASSLQSGVPSRFSGSGSGTQFTLTISSLQPEDFATYYCLQHNSYPLTFGGGTKVQIK | 383 | 0.0574 | 89 | 6740 | 600000 | 820 | 89 | 8370 | 745000 | 42 | 98 | 76 | – | no binding (tested: 10 and 100 ug/ml) | 3 | 954 | 2860 | no binding (tested: 10 and 100 ug/ml) | –
